“Also recorded” adds a separate entry of the source.
Key:
[1] = test system: c-Kit, MAPK and PI3K/Akt pathways in HBMEC; assay: Immunoblot of SCF/c-Kit signal transduction, HBMEC; type: cell-based, human; details: SCF 50 ng/ml
Experimental: (§1) Confluent-grown ECs were treated with 50 ng/ml of SCF for 5, 10, 15, and 30 min after 24 hr of serum starvation. The ECs were collected with RIPA lysis buffer (Upstate, Charlottesville, Va.) containing 50 mM NaF, 1 mM Na3VO4, […], and Protease Inhibitor Cocktail (Roche). The antibodies were purchased from Cell Signaling Technology, Inc. (Beverly, Mass.) or as mentioned otherwise. All the primary antibodies were used in a 1:1000 dilution except for the anti-SCF antibody, which was used in a 1:2000 dilution. The primary antibodies were anti-phospho-c-Kit, anti-phospho-MEK1/2 and anti-MEK1/2, anti-phospho-p44/42 MAPK and anti-p44/42 MAPK, anti-phospho-SAPK/JNK and anti-SAPK/JNK, anti-phospho-p38 MAPK and anti-p38 MAPK, anti-phospho-Akt and anti-Akt, anti-phospho-mTOR and anti-mTOR, anti-phospho-4E-BP1 and anti-4E-BP1, anti-SCF and anti-VEGF (Chemicon, Temecula, Calif.), and anti-β-tubulin (Sigma). Re-blotting was done after membranes were stripped by re-blot kit (Chemicon). Tie2 detection in Matrigel plugs from the in vivo Matrigel assay was carried out by immunoprecipitation and immunoblotting. The gel plugs were carefully separated from muscle and skin and homogenized with RIPA lysis buffer. The resulting total tissue lysates ([…]) were immunoprecipitated with Tie2 antibody (Santa Cruz Biotechnology, Inc., Santa Cruz, Calif.) and then analyzed by immunoblot with Tie2 antibody (Zadeh et al. 2004 Am J Pathol 162:467-476).

glioma cells = assay: Glioma cell proliferation in vitro with SCF; type: cell-based, human; details: even high concentrations of SCF
endogenous NSPCs = assay: In vivo progenitor cell migration, BrdU labeling and intracerebral rmSCF injection; design: species or system mouse; details: vs contralateral side and PBS-injected animals, day 7
[2] = test system: c-Kit, MAPK and PI3K/Akt pathways in BMVEC-b; assay: Immunoblot of SCF/c-Kit signal transduction, BMVEC-b; type: cell-based, bovine
Experimental: as §1

bMVEC-B cells = assay: bMVEC-B DNA synthesis by thymidine incorporation (Example 3); type: cell-based; details: rmSCF 1 ng/ml to 250 ng/ml, 72 hours
Experimental: To specifically confirm the pro-angiogenic effects of SCF in the brain, bMVEC-B cells were used. The cells were cultured in the presence of different concentrations of rmSCF (1 ng/ml to 250 ng/ml) or 0.1% BSA only medium for 72 hours. The rate of DNA synthesis was measured by thymidine incorporation.

SVZ stem cells = assay: In vivo SVZ cell tracking by ventricular DiI or GFP adenovirus before SCF injection; design: species or system mouse; details: seven days after SCF injection
Experimental: For labeling of neural progenitors in vivo, BrdU (Roche) was administrated intraperitoneally twice a day, at 8-hour intervals, for 14 days (50 mg/kg body weight). Twenty hour from the last BrdU injection, several animals were killed and their brains were sectioned for BrdU immunostaining. Intracerebral injections were administered to the remaining animals. Stereotaxic surgery was performed as described in the “freeze” injury, and the injections were given at the position of 1 mm anterior to the bregma, 1.5 mm lateral to the midline, and 2.5 mm ventral to the dura. Mice received a suspension of rmSCF (3 μg in 3 μl of PBS; R&D systems) or PBS through a Hamilton syringe. Each injection took 15 min. Seven days from the intracranial injection, the animals were killed and the brains were processed for BrdU immunohistochemical analysis. For ventricular injection of DiI (1,1′-dioctadecyl-6,6′-di(4-sulfophenyl)-3,3,3′,3′-tetrametylindocarbocyanine; Molecular Probes) or adenovirus expressing GFP, 2 μl of 0.2% DiI in DMSO or 2 μl of replication incompetent adenovirus (10^8 plaque-forming units per μl) (He, T. C. et al. 1998 PNAS USA 95:2509-2514) was injected 0.5 mm posterior and 0.7 mm lateral to bregma, and 2 mm below the dura matter into the lateral ventricle. […] Seven days after SCF injection, the brains were sectioned and analyzed for DiI or GFP distributions.

BMVEC-b = assay: Matrigel tube formation (EC differentiation) assay, BMVEC-b; type: cell-based, bovine; details: SCF 20 ng/ml
Experimental: After the Matrigel (BD Biosciences) formed a solid gel in 24-well plates, serum-starved BMVEC-b cells were seeded on the gel surface at 10^5 cells per well and cultured in treatment medium in the presence or absence of SCF (20 ng/ml). Primary HBMEC were placed on the gel directly at 24×10^3 per well. Tubular formation was observed using an inverted phase contrast microscope, and images were captured at 4 and 18 hr after cell seeding. Each experiment was repeated two or three times.

[3] = SCF 50 ng/ml after serum starvation

B1: SCF: Stem cell factor protein (R&D Systems), ligand of the c-Kit receptor (protein)
chain: KEICGNPVTDNVKDITKLVANLPNDYMITLNYVAGMDVLPSHCWLRDMVIQLSLSLTTLLDKFSNISEGLSNYSIIDKLGKIVDDLVLCMEENAPKNIKESPKRPETRSFTPEEFFSIFNRSIDAFKDFMVASDTSDCVLSSTLGPEKDSRVSVTKPFMLPPVA
phosphorylation of Akt [1]: induced immediate phosphorylation | phosphorylation of SAPK/JNK [1]: could not induce phosphorylation | phosphorylation of c-Kit [1]: induced immediate phosphorylation | phosphorylation of p38 MAPK [1]: could not induce phosphorylation | phosphorylation of p44/42 MAPK [1]: induced immediate phosphorylation | glioma cell proliferation (glioma cells): failed to induce proliferation | BrdU-positive cells in the SCF-injected area (endogenous NSPCs): Significantly more BrdU labeled cells | duration of p38 MAPK activation ([2]; SCF 50 ng/ml): over 30 min | phosphorylation of 4E-BP1 ([2]; SCF 50 ng/ml): increased phosphorylation of 4E-BP1 | phosphorylation of Akt ([2]; SCF 50 ng/ml): significantly enhanced | phosphorylation of MEK1/2 ([2]; SCF 50 ng/ml): dramatically increased | phosphorylation of p44/42 MAPK ([2]; SCF 50 ng/ml): dramatically increased | time of SAPK/JNK activation following SCF exposure ([2]; SCF 50 ng/ml): 10 to 15 min | duration of c-Kit auto-tyrosine-phosphorylation [2, 3]: 30 min | time of peak c-Kit auto-tyrosine-phosphorylation [2, 3]: 10 to 15 min | bMVEC-B DNA synthesis (thymidine incorporation) (bMVEC-B cells): stimulated DNA synthesis | DiI-labelled cells near the SCF injection site (SVZ stem cells; ventricular DiI): greater number of DiI positive cells; also recorded: significant numbers of DiI labelled cells | GFP-positive cells in the SCF-injected cortex (SVZ stem cells; ventricular GFP adenovirus): a large number of GFP-positive cells had migrated | time to mature appearing capillary-like structures (BMVEC-b): ≤ 18 h | time to migration in Matrigel (BMVEC-b): ≤ 4 h

— US20060286117A1, “Neuronally expressed stem cell factor modulates angiogenesis and neural stem cell migration to areas of brain injury” (priority 2003, published 2006)
